According to patent US20240279288A1, “APPLICATION OF PLANT JAZ PROTEINS AND DERIVED POLYPEPTIDES IN PREVENTION AND TREATMENT OF HUMAN AND ANIMAL TUMORS” (ANYANG INSTITUTE OF SINO-COTTON INDUSTRY INNOVATION, priority 2021, published 2024):

Columns and labels:
c-Myc-150aa = target: T1, c-Myc-150aa (Homo sapiens, UniProt P01106); experiment: Yeast two hybrid and LUC with c-Myc truncated to first 150 amino acids; format: binding
T1 construct: expressed in transfected cells
Text: […]

MCF7 cells = experiment: Apoptosis staining (Calcein AM/PI), fluorescence microscopy; format: cell-based, human; conditions: Calcein AM/PI staining vs PBS
Procedure: Method for apoptosis staining. Fluorescence microscopy detection: a. Seeding and culturing. Cells were seeded onto multiwell plates such as 96-well plates, cell culture dishes, or cell slides, and were treated in a certain way according to the experimental design. b. Washing (optionally). For adherent cells, the medium was removed, and cells were washed once with PBS. For suspended cells, cells were centrifuged at 250-1000×g at room temperature for 5 min, with the supernatant removed, followed by washing once with PBS. Phenol red or serum might interfere with the detection of this kit, therefore, a vacuum pump was preferred when removing the medium and PBS. PBS washing was not necessary in the case that the residual liquid can be sufficiently aspirated. c. Staining. An appropriate volume of Calcein AM/PI detection working solution (Beyotime Biotech. Inc., Calcein/PI Cell Viability and Cytotoxicity Detection Kit, Cat. No.: C2015) was added. Usually, 100 μl were added to each well for a 96-well plate, 250 μl for a 24-well plate, 500 μl for a 12-well plate, and 1 ml for a 6-well plate. Incubation was performed at 37° C. in dark for 30 min. […] After incubation, the staining effect was observed under a fluorescence microscope (with Calcein AM in green fluorescence, Ex/Em=494/517 nm; PI in red fluorescence, Ex/Em=535/617 nm). […]

[1] = tested on: Human ovarian cancer cells SKOV3 tumor; experiment: Ovarian cancer mouse model in vivo, intratumoral injection; parameters: species or system nude mice; conditions: 5 mg/kg intratumoral injection every 2 days, 7 times
Procedure: Human ovarian cancer cells SKOV3 were cultured. Cells were digested by the trypsin before being used for tumor bearing. Cells were washed twice with PBS, followed by resuspending with PBS to a concentration of 1×10^8/mL. The cell suspension was subcutaneously injected into the axilla of nude mice, with an inoculation dose of 0.2 mL per nude mouse. After inoculation, nude mice were randomly assigned into two groups, which were PBS group and GhJAZ1 protein (5 mg/kg) treated group, respectively, with 8 mice in each group. After tumor inoculation, administration began when the tumor volume reached to about 50-100 mm^3. Administration by intratumoral injection was conducted every 2 days for a cycle of 14 days, in total of 7 times. Throughout the entire experiment, the body weight of nude mice was monitored while administration, and tumor size was measured using a vernier caliper according on the formula V=½×length×width×width, to calculate the tumor volume, and plot tumor growth curve. 14 days later, the tumor was removed, took images and weighted.

T1 sequence (P01106 1-150): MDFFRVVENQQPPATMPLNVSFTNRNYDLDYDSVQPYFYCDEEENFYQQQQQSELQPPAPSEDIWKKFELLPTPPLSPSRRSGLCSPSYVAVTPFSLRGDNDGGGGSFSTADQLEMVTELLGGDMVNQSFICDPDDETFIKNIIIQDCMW

B1: GhJAZ1: cotton JAZ1 protein, gene number Gh_A05G0260, sequence SEQ ID No. 4; prokaryotically expressed with His tag, about 30 KD (protein)
chain: MSSCSESTAMKPARSPEKPSFAQTCNLLSQYLKEKGSFGDLSLGMTCNVEANGTPVVPPPTMNLFPLNDKSDDVCGRNGGNPKNLTSMDLFPQQAGLASKDDSPNKLEPQTAPMTIFYGGQVIVFNDFPANKAKEIMLLASNSSSQSNNSFNPIPFTSSIARSPIESSIGVPPTSKPVHPAQRAVPGDLPIARRASLHRFLEKRKDRITAKAPYQINNSAAAPSLSGDNKSWLGLAAQSP
modifications: His tag
notes: prokaryotically expressed with His tag, about 30 KD
c-Myc-150aa
  interaction with first 150 amino acids truncated c-Myc: strong interactions
MCF7 cells
  mortality rate of MCF7 cells: significantly increased
[1]; SKOV3 in nude mice
  volume of tumors vs control group: highly significantly lower
[1]; tumors removed after 14 days
  weight of tumors vs control group: highly significantly lower
